pKd: −log10 of the molar value.

Experiment [1] addresses Pyrobaculum calidifontis arcadin-1 (Pyrobaculum calidifontis). Put plainly: AUC; sedimentation equilibrium, arcadin-1 at 49.8, 99.5 and 199 µM, 7800, 11800 and 15,000 rpm, 20°C, 25 mM Tris-HCl pH 8.0, 100 mM NaCl, 1 mM EDTA; idealised single-species model.
The target in experiment [2] is Pyrobaculum calidifontis crenactin (Pyrobaculum calidifontis) (UniProt A3MWN5). Put plainly: SPR; crenactin immobilised by amide coupling on CM5 chip (~2300 RU), Biacore T200, PBS-0.005% Tween 20, 20°C; arcadin-1 in 1:3 dilution series from 36.7 µM; equilibrium response fitted to a single site model.
Pyrobaculum calidifontis crenactin (Pyrobaculum calidifontis), sequence (A3MWN5 whole entry): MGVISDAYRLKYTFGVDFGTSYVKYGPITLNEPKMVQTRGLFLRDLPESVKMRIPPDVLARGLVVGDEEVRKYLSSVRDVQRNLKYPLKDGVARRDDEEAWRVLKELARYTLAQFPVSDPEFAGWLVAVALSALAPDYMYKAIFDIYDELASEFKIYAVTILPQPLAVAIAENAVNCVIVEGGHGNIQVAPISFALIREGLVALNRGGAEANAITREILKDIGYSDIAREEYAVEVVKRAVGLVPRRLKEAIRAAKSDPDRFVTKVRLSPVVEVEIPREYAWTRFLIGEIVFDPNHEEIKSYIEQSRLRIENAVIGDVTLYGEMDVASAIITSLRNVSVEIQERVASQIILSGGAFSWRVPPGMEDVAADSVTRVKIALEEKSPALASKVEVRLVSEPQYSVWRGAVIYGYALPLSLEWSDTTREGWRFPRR

In general, stoichiometry N refers to the number of molecules, sites or subunits per partner or assembly. In general, pKd refers to the Kd on a negative log10 scale, so that one unit is a factor of ten. Low values mean a large Kd, high ones a small Kd. Consider “Pyrobaculum calidifontis arcadin-1 (natural protein)”, for which, in experiment [1], the stoichiometry N was determined as 8. Besides, the negative-log Kd (pKd) in experiment [2] is 4.82.

The values are drawn from paper PMC5173319, “Crenactin forms actin-like double helical filaments regulated by arcadin-2” (eLife, 2016).
